Numbering of substitutions follows the chain as printed. Entries after “also recorded” stand apart in the source; their conditions may differ.
Columns and labels:
Type in all cases: cell-based
[1] = molecular target: T1, M2 muscarinic acetylcholine receptor (M2AchR) (Rattus norvegicus, UniProt P10980); experiment: CRE-SEAP reporter gene assay, coupling of Gαs-based chimeric G proteins with M2AchR (transient); conditions: 10 uM acetylcholine; for increase in SEAP activity: HEK-293 cells cotransfected with chimera, M2AchR and CRE-SEAP
T1 construct: expressed in transfected cells; host or cells: HEK-293
T1 sequence (P10980 1-466): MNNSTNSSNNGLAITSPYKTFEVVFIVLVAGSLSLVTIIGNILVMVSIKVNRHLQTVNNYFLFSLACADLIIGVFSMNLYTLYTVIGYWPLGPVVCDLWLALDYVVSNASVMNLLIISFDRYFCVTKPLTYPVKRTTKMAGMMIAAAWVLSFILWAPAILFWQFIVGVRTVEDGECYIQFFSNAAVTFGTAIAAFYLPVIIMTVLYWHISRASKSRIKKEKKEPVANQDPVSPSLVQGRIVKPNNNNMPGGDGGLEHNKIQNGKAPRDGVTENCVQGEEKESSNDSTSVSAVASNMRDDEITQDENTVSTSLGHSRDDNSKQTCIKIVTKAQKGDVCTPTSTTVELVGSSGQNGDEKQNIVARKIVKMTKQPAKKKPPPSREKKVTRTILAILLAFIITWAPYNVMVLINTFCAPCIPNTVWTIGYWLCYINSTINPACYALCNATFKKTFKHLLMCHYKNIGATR
Description: The constructs encoding chimeric G proteins were made by substituting C-terminal amino acids of Gαs (SEQ ID NO: 1) with the corresponding C-terminal amino acid sequences of other Gα subunits. A first set of Gαs-based chimeric G proteins was prepared by designing constructs encoding seven Gαs-Gαi chimeras in which the C-terminal 5, 11, 13, 28, 65, 84, or 131 amino acids of Gαs were substituted with the corresponding C-terminal amino acids from the […]. Briefly, HEK-293 cells were cotransfected with chimera constructs together with the CRE-SEAP reporter gene construct and a cDNA encoding the M2 muscarinic acetylcholine receptor (M2AchR), a GPCR that couples to Gαo but not to Gαs and inhibits cAMP production. The transfected cells were cultured in the presence or absence of acetylcholine and then assayed for SEAP activity.
A series of chimeric constructs were prepared in which the final 13 C-terminal amino acids of the Gαs subunit were substituted with the final 13 C-terminal amino acids from Gαo, Gαz, Gαt, Gαq, or Gα15 subunits. Also tested were the Gαs-Gαi-13 and a chimera containing the last 5 C-terminal amino acids of Gαk (Gαs-Gαk-5 (SEQ ID NO: 2)). These chimeric constructs were tested for coupling with M2AchR. […] The Gαs-Gαo-13 (SEQ ID NO: […]) and Gαs-Gα15-13 (SEQ ID NO: 7) allowed approximately 2-fold increases in SEAP activity.
(§1) Chimeric G protein cloning: An insert containing rat Gαs cDNA was cut out using the restriction enzymes SaII and HinDIII, and ligated into pcDNA3.1(−) cut with XhoI and HinDIII. The chimeric G proteins with the desired C-terminal amino acid substitutions were prepared by PCR using Gαs as a template. More specifically, Gαs was PCR amplified between an internal EcoRI site and the stop codon, with a 3′ HinDIII placed immediately after the stop codon. A different 3′ oligonucleotide was used for each Gαs chimera and contained a 39 bp sequence that encoded the substituted amino acids at the C-terminus selected from the donor Gα subunit.
M2AchR GPCR cloning: Rat M2AchR receptor was cloned by PCR from cDNA templates (ATCC) and ligated into pcDNA 3.1(−) for expression in mammalian cells.
CRE-SEAP Reporter Gene Assay: 0.5×10^5 HEK-293 cells (ATCC) were seeded into each well of a 96 well plate 24 hours prior to transfection. cDNAs encoding M2AchR, SEAP reporters (Mercury Pathway Profiling System, BD Biosciences), and G protein chimeras were transfected into HEK-293 cells using lipofectamine reagent (Invitrogen) according to the manufacturer's protocols. […]
Following transfection, the cells were maintained for 48 hours in 200 ul serum free media containing 10 uM acetylcholine (Sigma). […] Fluorescence was then measured using a CytoFluor 4000 multi well plate reader (Applied Biosystems).

[2] = tested on: nine GPCRs that do not bind to Gαs (serotonin 1b, neuropeptide Y1, leukotriene B4, dopamine D4, GNRH, UDP, calcium-sensing, T1R2/T1R3); experiment: CRE-SEAP reporter gene assay, coupling of chimeric G proteins with a variety of GPCRs; conditions: HEK-293 cells, GPCR ligand 48 hours
Source text: (§2) The GPCRs examined were those that couple with Gαi/Gαo subunits (serotonin 1b, neuropeptide Y1, leukotriene B4, and dopamine D4), Gαq (GNRH, UDP, and calcium-sensing receptors), and the orphan mammalian sweet taste receptor complex (T1R2 and T1R3) with unknown coupling preference. The Gαs-based chimeric G proteins examined in this example were Gαs-Gαi-5, Gαs-Gαt-13 (SEQ ID NO: 3), Gαs-Gαo-13 (SEQ ID NO: 4), Gαs-Gαi-13 (SEQ ID NO: 5), Gαs-Gαz-6 (SEQ ID NO: 18), Gαs-Gα15-13 (SEQ ID NO: 7), Gαs-Gαk-5 (SEQ ID NO: 2), and Gαs-Gαq-13 (SEQ ID NO: 8). The chimeric G protein constructs were prepared as described herein. For the coupling assay, HEK-293 cells were cotransfected with each of the Gαs-based chimeric G protein constructs of interest together with the CRE-SEAP reporter gene construct and a cDNA encoding the GPCR to be tested. The transfected cells were cultured in the presence or absence of a GPCR ligand and then assayed for SEAP activity.
as §1, with “substitutions from the Gαi, Gαt, Gαo, Gαz, Gα15, Gαk, and Gαq” for “substitutions”
GPCR cloning: Mouse 5-HT1B, mouse dopamine D4, human GNRH, and human neuropeptide Y1 receptors were cloned by PCR from cDNA templates (ATCC) and ligated into pcDNA 3.1(−) (Invitrogen) for expression in mammalian cells. […]
(§3) Following transfection, the cells were maintained for 48 hours in 200 ul serum free media containing GPCR ligand. […] Fluorescence was then measured using a CytoFluor 4000 multi well plate reader (Applied Biosystems).

dopamine D4 receptor = molecular target: T2, dopamine D4 receptor (Mus musculus, UniProt P51436); experiment: CRE-SEAP reporter gene assay, coupling with dopamine D4; conditions: HEK-293 cells, 1 uM dopamine
T2 construct: expressed in transfected cells; host or cells: HEK-293
T2 sequence (P51436 1-387): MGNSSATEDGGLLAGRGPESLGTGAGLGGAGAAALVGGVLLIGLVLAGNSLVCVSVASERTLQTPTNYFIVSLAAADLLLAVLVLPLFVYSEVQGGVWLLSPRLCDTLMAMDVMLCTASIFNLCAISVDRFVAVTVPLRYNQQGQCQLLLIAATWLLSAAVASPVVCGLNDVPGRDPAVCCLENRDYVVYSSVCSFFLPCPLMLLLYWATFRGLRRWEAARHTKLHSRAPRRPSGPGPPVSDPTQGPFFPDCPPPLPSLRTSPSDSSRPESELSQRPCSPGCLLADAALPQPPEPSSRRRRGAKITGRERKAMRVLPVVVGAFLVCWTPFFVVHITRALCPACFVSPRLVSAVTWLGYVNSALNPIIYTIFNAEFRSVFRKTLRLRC
Source text: as §2
Chimeric G protein cloning: An insert containing rat Gαs cDNA was cut out using the restriction enzymes SaII and HinDIII, and ligated into pcDNA3.1(−) cut with XhoI and HinDIII. […]
as §3

B1: Gαs-Gαi-13: Gαs-based chimeric G protein, C-terminal 13 amino acids of Gαs substituted with those of Gαi (protein)
chain: MGCLGNSKTEDQRNEEKAQREANKKIEKQLQKDKQVYRATHRLLLLGAGESGKSTIVKQMRILHVNGFNGEGGEEDVPDYASNSDGEKATKVQDIKNNLKEAIETIVAAMSNLVPPVELANPENQFRVDYILSVMNVPNFDFPPEFYEHAKALWEDEGVRACYERSNEYQLIDCAQYFLDKIDVIKQADYVPSDQDLLRCRVLTSGIFETKFQVDKVNFHMFDVGGQRDERRKWIQCFNDVTAIIFVVASSSYNMVIREDNQTNRLQEALNLFKSIWNNRWLRTISVILFLNKQDLLAEKVLAGKSKIEDYFPEFARYTTPEDATPEPGEDPRVTRAKYFIRDEFLRISTASGDGRHYCYPHFTCAVDTENIRRVFNDCRDVIIKNNLKDCGLF
modifications: Chimeric protein
notes: Gαs-based chimeric G protein, C-terminal 13 amino acids of Gαs substituted with those of Gαi
[1]; HEK-293 cells
  ligand induced increases in SEAP activity mediated by M2AchR (in words): Particularly effective; also recorded: highest responses
[2]
  GPCRs tested that coupled to the chimera: seven of the nine

B2: Gαs-Gαz-13: Gαs-based chimeric G protein, final 13 C-terminal amino acids substituted with those of Gαz (protein)
chain: B1 chain with K385Q, D390Y, C391I, F394C
modifications: Chimeric protein
notes: Gαs-based chimeric G protein, final 13 C-terminal amino acids substituted with those of Gαz
[1]
  increase in SEAP activity: approximately 2 fold

B3: Gαs-Gα15-13: Gαs-based chimeric G protein, final 13 C-terminal amino acids substituted with those of Gα15 (protein)
chain: MGCLGNSKTEDQRNEEKAQREANKKIEKQLQKDKQVYRATHRLLLLGAGESGKSTIVKQMRILHVNGFNGEGGEEDVPDYASNSDGEKATKVQDIKNNLKEAIETIVAAMSNLVPPVELANPENQFRVDYILSVMNVPNFDFPPEFYEHAKALWEDEGVRACYERSNEYQLIDCAQYFLDKIDVIKQADYVPSDQDLLRCRVLTSGIFETKFQVDKVNFHMFDVGGQRDERRKWIQCFNDVTAIIFVVASSSYNMVIREDNQTNRLQEALNLFKSIWNNRWLRTISVILFLNKQDLLAEKVLAGKSKIEDYFPEFARYTTPEDATPEPGEDPRVTRAKYFIRDEFLRISTASGDGRHYCYPHFTCAVDTENIRRVFNDCRDSVLARYLDEINLL
modifications: Chimeric protein
notes: Gαs-based chimeric G protein, final 13 C-terminal amino acids substituted with those of Gα15
[1]
  increase in SEAP activity: approximately 2 fold

B4: Gαs-Gαo-13: Gαs-based chimeric G protein, final 13 C-terminal amino acids substituted with those of Gαo (protein)
chain: B1 chain with V382I, K385A, K389R, D390G, F394Y
modifications: Chimeric protein
notes: Gαs-based chimeric G protein, final 13 C-terminal amino acids substituted with those of Gαo
[2]
  GPCRs tested that coupled to the chimera: seven of the nine
Dopamine D4 receptor
  coupling with dopamine D4 receptor: permitted a response

From patent US9658208B2, “Methods and G proteins for screening and identifying ligands of G protein-coupled receptors” (Fred Hutchinson Cancer Research Center, priority 2011, dated 2017)
